Measured values reported in patent US20250163410.

Test system: VchCAST TnsB transposase (Tn6677; assayed with TnsA-TnsC and TniQ-Cascade) (Vibrio cholerae)
Experiment: cell_activity
Conditions: for binding signal: no IPTG

AATGTTGTTGAAACAACCATAAAGTGATAACAACGAATCAATTAAAATCATAGGCTTAATCGAAAAACAACCATATCTTGATATCGCATAAAACAACCATAAGTTGATATTTTGGTGAAAAGGATATTCCAACCTTCATAGTTTAGTAAGAA (double strand) [Left end hyperactive 4668]
binding signal (T-RL): 1.76 fold vs WT

AATGTTGTTGATGCAACCATAAAGTGATATTTAATAATTATTTATAATCAGCAACTGAACCACAAAACAACCATATATTGATATCTCACAAAACAACCATAAGTTGATATTTTTGTGAATCGAGTATTTCAGCAAAACTACTGCAGTAAGAA (double strand) [Left end variant 3311]
binding signal (log2 fold vs WT) (T-RL, second replicate -0.9350): -1.73

AATGTTGTTGATGCAACCATAAAGTGATATTTAATAATTATTTATAATCAGCAACTTAACCACAAAACAACCAGATATTGATATCTCACAAAACAACCATAAGTTGATATTTTTGTGAATCGAGTATTTCAGCAAAACTACTGCAGTAAGAA (double strand) [Left end variant 3260]
binding signal (log2 fold vs WT) (T-RL, second replicate -0.7874): -1.91

AATGTTGTTGATGCAACCATAAAGTGATATTTAATAATTATTTATAATCAGCAACTTAACCACAAAACAACCATATATTCATATCTCACAAAACAACCATAAGTTGATATTTTTGTGAATCGAGTATTTCAGCAAAACTACTGCAGTAAGAA (double strand) [Left end variant 3243]
binding signal (log2 fold vs WT) (T-RL, second replicate -1.5930): -2.53

AATGTTGTTGATGCAACCATAAAGTGATATTTAATAATTATTTATAATCAGCAACTTAACCACAAAACAACCATATATTGATATCTCACAAAACAACCATAAGTTCATATTTTTGTGAATCGAGTATTTCAGCAAAACTACTGCAGTAAGAA (double strand) [Left end variant 3165]
binding signal (log2 fold vs WT) (T-RL, second replicate -1.3719): -2.25

AATGTTGTTGATGCAACCATAAAGTGATATTTAATAATTATTTATAATCAGCAACTTAACCACAAAACAACCATATATTGATATCTCACAAAACAACCATAAGTTGATATTTTTGTGAATAGGATATTCCAACCTTCATAGTTTAGTAAGAA (double strand) [Left end hyperactive 4673]
binding signal (T-RL): 1.53 fold vs WT

AATGTTGTTGATGCAACCATAAAGTGATATTTAATAATTATTTATAATCAGCAACTTAACCACAAAACAACCATATATTGATATCTCACAAAACACCCATAAGTTGATATTTTTGTGAATCGAGTATTTCAGCAAAACTACTGCAGTAAGAA (double strand) [Left end variant 3195]
binding signal (log2 fold vs WT) (T-RL, second replicate 0.7256): 0.722

AATGTTGTTGATGCAACCATAAAGTGATATTTAATAATTATTTATAATCAGCAACTTAACCTCAAAACAACCATATATTGATATCTCACAAAACAACCATAAGTTGATATTTTTGTGAATCGAGTATTTCAGCAAAACTACTGCAGTAAGAA (double strand) [Left end variant 3295]
binding signal (log2 fold vs WT) (T-RL, second replicate 1.3754): 0.963

AATGTTGTTGATGCAACCATAAAGTGATATTTACGAATCAATTAAAATCATAGGCTTAATCGAAAAACAACCATATATTGATATCTCATAAAACAACCATAAGTTGATATTTTGGTGAAAAGGATATTCCAACCTTCATAGTTTAGTAAGAA (double strand) [Left end hyperactive 4666]
binding signal (T-RL): 2.58 fold vs WT

ACATTAGTTGATACAACCATAAAATGATAATTACACCCATAAATTGATAATTATCACACCCATAAATTGATATTGCCTCTGATCATAGTCAGACCAACATTGCTACGACCCGTATTCGCACCGACAC (double strand) [Right end variant 1068]
binding signal (log2 fold vs WT) (T-RL, second replicate -5.4441): -6.17

ACATTCGTTGATACAACCATAAAATGATAATTACACCCATAAATTGATAATTATCACACCCATAAATTGATATTGCCTCTGATCATAGTCAGACCAACATTGCTACGACCCGTATTCGCACCGACAC (double strand) [Right end variant 1070]
binding signal (log2 fold vs WT) (T-RL, second replicate): -1.95

ACATTGGTTGATACAACCATAAAATGATAATTACACCCATAAATTGATAATTATCACACCCATAAATTGATATTGCCTCTGATCATAGTCAGACCAACATTGCTACGACCCGTATTCGCACCGACAC (double strand) [Right end variant 1069]
binding signal (log2 fold vs WT) (T-RL, second replicate -6.7160): -6.61

ACATTTGGTGATACAACCATAAAATGATAATTACACCCATAAATTGATAATTATCACACCCATAAATTGATATTGCCTCTGATCATAGTCAGACCAACATTGCTACGACCCGTATTCGCACCGACAC (double strand) [Right end variant 1063]
binding signal (log2 fold vs WT) (T-RL, second replicate -5.3052): -6.47

ACATTTGTTGATACAACCATAAAATCATAATTACACCCATAAATTGATAATTATCACACCCATAAATTGATATTGCCTCTGATCATAGTCAGACCAACATTGCTACGACCCGTATTCGCACCGACAC (double strand) [Right end variant 1010]
binding signal (log2 fold vs WT) (T-RL, second replicate -1.5090): -1.91

ACATTTGTTGATACAACCATAAAATGATAATAACACCCATAAATTGATAATTATCACACCCATAAATTGATATTGCCTCTGATCATAGTCAGACCAACATTGCTACGACCCGTATTCGCACCGACAC (double strand) [Right end variant 990]
binding signal (log2 fold vs WT) (T-RL, second replicate 1.0127): 0.854

ACATTTGTTGATACAACCATAAAATGATAATTACACCCATAAATTGATAATTATCACACCCATAAATTGATATTGCCTCTCAGACCACATAGCTGCCATGTCCTGATCGGACGGACCGCACCGACAC (double strand) [Right end hyperactive 2701]
binding signal (T-RL): 1.7 fold vs WT

ACATTTGTTGATACAACCATAAAATGATAATTACACCCATAAATTGATAATTATCACACCCATAAATTGATATTGCCTCTCCGACCCGGAAGAGGGCGCCTAGAATTGGGAGTGGTCGCACCGACAC (double strand) [Right end hyperactive 2700]
binding signal (T-RL): 1.72 fold vs WT

ACATTTGTTGATACAACCATAAAATGATAATTACACCCATAAATTGATAATTATCACACCCATAAATTGATATTGCCTCTCGCGAGAGGCCGGCAGCCGTCTGGCGTCGGGTGGCGGGCACCGACAC (double strand) [Right end hyperactive 2697]
binding signal (T-RL): 2.03 fold vs WT

ACATTTGTTGATACAACCATAAAATGATAATTACACCCATAAATTGATAATTATCACACCCATAAATTGATATTGCCTCTGATCAAATTGTGAGCGGATAACAATTTAGTCAGACCAGCACCGACAC (double strand) [Right end hyperactive 2695]
binding signal (T-RL): 1.82 fold vs WT

ACATTTGTTGATACAACCATAAAATGATAATTACACCCATAAATTGATAATTATCACACCCATAAATTGATATTGCCTCTGATCAGGAATTGTGAGCGGATAACAATTTAGTCAGACGCACCGACAC (double strand) [Right end hyperactive 2693]
binding signal (T-RL): 2.05 fold vs WT

ACATTTGTTGATACAACCATAAAATGATAATTACACCCATAAATTGATAATTATCACACCCATAAATTGATATTGCCTCTGATCATAAATATATAAATTAATTATTAAATTAGTCAGGCACCGACAC (double strand) [Right end hyperactive 2692]
binding signal (T-RL): 2.24 fold vs WT

ACATTTGTTGATACAACCATAAAATGATAATTACACCCATAAATTGATAATTATCACACCCATAAATTGATATTGCCTCTGATCATAATTGTTATCCGCTCACAATTCCAGTCAGACGCACCGACAC (double strand) [Right end hyperactive 2694]
binding signal (T-RL): 1.89 fold vs WT

ACATTTGTTGATACAACCATAAAATGATAATTACACCCATAAATTGATAATTATCACACCCATAAATTGATATTGCCTCTGATCATATTTAATAATTAATTTATATATTTAAGTCAGGCACCGACAC (double strand) [Right end hyperactive 2691]
binding signal (T-RL): 2.63 fold vs WT

ACATTTGTTGATACAACCATAAAATGATAATTACACCCATAAATTGATAATTATCACACCCATAAATTGATATTGCCTCTGGCGCTCTGTACCCCGCTCGGTCCTCCCGCGCATCGCGCACCGACAC (double strand) [Right end hyperactive 2698]
binding signal (T-RL): 1.59 fold vs WT

ACATTTGTTGATACAACCATAAAATGATAATTACACCCATAAATTGATAATTATCACACCCATAAATTGATATTGCCTCTGTACGATCCAGTGATCTCCAAGACGCTGCAAGAGTCCGCACCGACAC (double strand) [Right end hyperactive 2702]
binding signal (T-RL): 1.71 fold vs WT

ACATTTGTTGATACAACCATAAAATGATAATTACACCCATAAATTGATAATTATCACACCCATAAATTGATATTGCCTCTGTTGGCGCCCGGCCCTCAGGCCCTGCAGTGAGTTCCAGCACCGACAC (double strand) [Right end hyperactive 2699]
binding signal (T-RL): 1.77 fold vs WT

ACATTTGTTGATACAACCATAAAATGATAATTACACCCATAAATTGATAATTATCACACCCATAAATTGATATTGCCTCTTTATGCAGGACGACGTACGCGTTCCATATAAACCTGTGCACCGACAC (double strand) [Right end hyperactive 2696]
binding signal (T-RL): 1.83 fold vs WT

ACATTTGTTGATACAACCATAAAATGATAATTACACCCATAAATTGATAATTATCACACCCATACCTTGATATTGCCTCTGATCATAGTCAGACCAACATTGCTACGACCCGTATTCGCACCGACAC (double strand) [Right end variant 1100]
binding signal (log2 fold vs WT) (T-RL, second replicate 1.4027): 1.3

ACATTTGTTGATACAACCATAAAATGATAATTATACCCATAAATTGATAATTATCACACCCATAAATTGATATTGCCTCTGATCATAGTCAGACCAACATTGCTACGACCCGTATTCGCACCGACAC (double strand) [Right end variant 985]
binding signal (log2 fold vs WT) (T-RL, second replicate -1.2264): -1.42

ACATTTGTTGATACAACCATAATATGATAATTACACCCATAAATTGATAATTATCACACCCATAAATTGATATTGCCTCTGATCATAGTCAGACCAACATTGCTACGACCCGTATTCGCACCGACAC (double strand) [Right end variant 1017]
binding signal (log2 fold vs WT) (T-RL, second replicate 1.4722): 1.36

ACATTTTTTGATACAACCATAAAATGATAATTACACCCATAAATTGATAATTATCACACCCATAAATTGATATTGCCTCTGATCATAGTCAGACCAACATTGCTACGACCCGTATTCGCACCGACAC (double strand) [Right end variant 1066]
binding signal (log2 fold vs WT) (T-RL, second replicate -1.9162): -2.48

TGTGGATACAACCATAAAACGATAATTACACCCATAAATGGATCATTATCACACCCA (double strand) [Right end ORF1b]
binding signal (log2 fold vs WT) (T-RL, second replicate): -2.03

TGTGGATACAACCATAAAATGATAATTACACCCATAAATGGATCATTATCACCCCCA (double strand) [Right end ORF1a]
binding signal (log2 fold vs WT) (T-RL integration, second replicate -1.08): -1.47

TGTGGATCCAACCATAAAATGATAATTACACCCATAAATGGATCATTATCACACCCA (double strand) [Right end ORF1c]
binding signal (log2 fold vs WT) (T-RL, second replicate -1.51): -2.06
